# Test results from US20160272683A1 (Novo Nordisk, published 2016).
# Numbered stars: 1 amine (or outer) side, 2 acyl side, 3 side chain; on linkers, the order of the positions; unused ones are H or OH. Side chains are listed from the residue outwards. Ends that are not written are not given here. * marks the point of attachment. C20 diacid = O=C(O)CCCCCCCCCCCCCCCCCCC(=O)*; C18 diacid = O=C(O)CCCCCCCCCCCCCCCCC(=O)*; C16 diacid = O=C(O)CCCCCCCCCCCCCCC(=O)*; γGlu = O=C(O)[C@H](CCC(=O)[*:2])N[*:1]; C14 diacid = O=C(O)CCCCCCCCCCCCC(=O)*; AEEA = NCCOCCOCC(=O)O
# T1: human calcitonin receptor on BHK570/CRE-luc cells (human, UniProt P30988 25-474)
# T1 sequence (looked up): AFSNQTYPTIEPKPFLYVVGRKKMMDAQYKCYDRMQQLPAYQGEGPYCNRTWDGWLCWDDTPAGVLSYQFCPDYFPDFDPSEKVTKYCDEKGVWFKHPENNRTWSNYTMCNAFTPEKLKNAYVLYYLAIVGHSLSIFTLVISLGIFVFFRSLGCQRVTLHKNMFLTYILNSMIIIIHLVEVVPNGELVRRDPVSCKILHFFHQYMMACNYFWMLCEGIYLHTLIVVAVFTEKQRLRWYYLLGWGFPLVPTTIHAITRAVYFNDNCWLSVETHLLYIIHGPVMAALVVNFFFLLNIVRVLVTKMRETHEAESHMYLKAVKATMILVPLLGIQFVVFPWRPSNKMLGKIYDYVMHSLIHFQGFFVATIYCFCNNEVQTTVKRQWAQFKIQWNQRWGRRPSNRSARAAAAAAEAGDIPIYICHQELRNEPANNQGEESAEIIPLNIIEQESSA
# T2: human amylin 3(a) receptor (human calcitonin receptor co-expressed with RAMP-3) on BHK570/CRE-luc cells (human, UniProt P30988 25-474; O60896 24-148)
# T2 sequence (looked up) 1: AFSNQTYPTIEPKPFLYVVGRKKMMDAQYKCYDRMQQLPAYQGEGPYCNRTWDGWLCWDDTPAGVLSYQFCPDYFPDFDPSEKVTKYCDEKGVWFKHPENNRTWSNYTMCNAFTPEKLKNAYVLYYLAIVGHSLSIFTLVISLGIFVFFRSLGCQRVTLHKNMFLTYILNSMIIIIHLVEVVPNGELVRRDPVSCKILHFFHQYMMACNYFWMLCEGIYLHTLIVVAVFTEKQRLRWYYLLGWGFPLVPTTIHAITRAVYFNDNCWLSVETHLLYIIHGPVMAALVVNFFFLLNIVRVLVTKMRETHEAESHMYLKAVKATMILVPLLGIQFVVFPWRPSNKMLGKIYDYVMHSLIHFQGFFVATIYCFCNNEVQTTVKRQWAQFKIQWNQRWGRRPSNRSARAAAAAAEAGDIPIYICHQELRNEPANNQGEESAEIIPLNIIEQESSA
# T2 sequence (looked up) 2: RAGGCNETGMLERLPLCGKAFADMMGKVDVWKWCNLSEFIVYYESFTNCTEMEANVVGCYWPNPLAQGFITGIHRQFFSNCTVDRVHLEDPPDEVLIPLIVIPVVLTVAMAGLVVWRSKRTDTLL
# How the values were obtained:
# [1] = biological target: T1, human calcitonin receptor on …; experiment: cell-based or functional assay
# [2] = biological target: T2, human amylin 3(a) receptor (human …); experiment: cell-based or functional assay
"hCTR funct. EC50 (pM), tested with HSA [1] [pM]","hAmylin-R funct. EC50 (pM), tested with HSA [2] [pM]",Binder
48,57,"ASELSTAALGRLSAK([γGlu-C20 diacid])LHELATLPRTETGSGSP-NH2 (N-terminus assumed; SMILES CC(C)C[C@H](NC(=O)[C@H](C)NC(=O)[C@H](C)NC(=O)[C@@H](NC(=O)[C@H](CO)NC(=O)[C@H](CC(C)C)NC(=O)[C@H](CCC(=O)O)NC(=O)[C@H](CO)NC(=O)[C@H](C)N)[C@@H](C)O)C(=O)NCC(=O)N[C@@H](CCCNC(=N)N)C(=O)N[C@@H](CC(C)C)C(=O)N[C@@H](CO)C(=O)N[C@@H](C)C(=O)N[C@@H](CCCCNC(=O)CC[C@H](NC(=O)CCCCCCCCCCCCCCCCCCC(=O)O)C(=O)O)C(=O)N[C@@H](CC(C)C)C(=O)N[C@@H](Cc1c[nH]cn1)C(=O)N[C@@H](CCC(=O)O)C(=O)N[C@@H](CC(C)C)C(=O)N[C@@H](C)C(=O)N[C@H](C(=O)N[C@@H](CC(C)C)C(=O)N1CCC[C@H]1C(=O)N[C@@H](CCCNC(=N)N)C(=O)N[C@H](C(=O)N[C@@H](CCC(=O)O)C(=O)N[C@H](C(=O)NCC(=O)N[C@@H](CO)C(=O)NCC(=O)N[C@@H](CO)C(=O)N1CCC[C@H]1C(N)=O)[C@@H](C)O)[C@@H](C)O)[C@@H](C)O) [[des1, 16K(C20 diacid-gGlu), 30S, 31G]mimylin]"
19,39,"{C18 diacid-γGlu}-ASELSTAALGRLSAELHELATLPRTETGSPSP-NH2 (SMILES CC(C)C[C@H](NC(=O)[C@H](C)NC(=O)[C@H](C)NC(=O)[C@@H](NC(=O)[C@H](CO)NC(=O)[C@H](CC(C)C)NC(=O)[C@H](CCC(=O)O)NC(=O)[C@H](CO)NC(=O)[C@H](C)NC(=O)CC[C@H](NC(=O)CCCCCCCCCCCCCCCCC(=O)O)C(=O)O)[C@@H](C)O)C(=O)NCC(=O)N[C@@H](CCCNC(=N)N)C(=O)N[C@@H](CC(C)C)C(=O)N[C@@H](CO)C(=O)N[C@@H](C)C(=O)N[C@@H](CCC(=O)O)C(=O)N[C@@H](CC(C)C)C(=O)N[C@@H](Cc1c[nH]cn1)C(=O)N[C@@H](CCC(=O)O)C(=O)N[C@@H](CC(C)C)C(=O)N[C@@H](C)C(=O)N[C@H](C(=O)N[C@@H](CC(C)C)C(=O)N1CCC[C@H]1C(=O)N[C@@H](CCCNC(=N)N)C(=O)N[C@H](C(=O)N[C@@H](CCC(=O)O)C(=O)N[C@H](C(=O)NCC(=O)N[C@@H](CO)C(=O)N1CCC[C@H]1C(=O)N[C@@H](CO)C(=O)N1CCC[C@H]1C(N)=O)[C@@H](C)O)[C@@H](C)O)[C@@H](C)O) [[N-terminal(C18 diacid-gGlu), des1, 30S, 31P]mimylin]"
35,67,"{C20 diacid-γGlu-AEEA-AEEA}-ASELSTAALGRLSAELHELATLPRTETGSGSP-NH2 [[N-terminal(C20 diacid-gGlu-2xOEG), des1, 30S, 31G]mimylin]"
2,4,"{C16 diacid-γGlu}-ASELSTAALGRLSAELHELATLPRTETGSGSP-NH2 [[N-terminal(C16 diacid-gGlu), des1, 30S, 31G]mimylin]"
30,74,"ASK([γGlu-C20 diacid])LSTAALGRLSAELHELATLPRTETGSGSP-NH2 (N-terminus assumed; SMILES CC(C)C[C@H](NC(=O)[C@H](C)NC(=O)[C@H](C)NC(=O)[C@@H](NC(=O)[C@H](CO)NC(=O)[C@H](CC(C)C)NC(=O)[C@H](CCCCNC(=O)CC[C@H](NC(=O)CCCCCCCCCCCCCCCCCCC(=O)O)C(=O)O)NC(=O)[C@H](CO)NC(=O)[C@H](C)N)[C@@H](C)O)C(=O)NCC(=O)N[C@@H](CCCNC(=N)N)C(=O)N[C@@H](CC(C)C)C(=O)N[C@@H](CO)C(=O)N[C@@H](C)C(=O)N[C@@H](CCC(=O)O)C(=O)N[C@@H](CC(C)C)C(=O)N[C@@H](Cc1c[nH]cn1)C(=O)N[C@@H](CCC(=O)O)C(=O)N[C@@H](CC(C)C)C(=O)N[C@@H](C)C(=O)N[C@H](C(=O)N[C@@H](CC(C)C)C(=O)N1CCC[C@H]1C(=O)N[C@@H](CCCNC(=N)N)C(=O)N[C@H](C(=O)N[C@@H](CCC(=O)O)C(=O)N[C@H](C(=O)NCC(=O)N[C@@H](CO)C(=O)NCC(=O)N[C@@H](CO)C(=O)N1CCC[C@H]1C(N)=O)[C@@H](C)O)[C@@H](C)O)[C@@H](C)O) [[des1, 4K(C20 diacid-gGlu), 30S, 31G]mimylin]"
28,49,"ASELSTAALGRLSAELHK([γGlu-C20 diacid])LATLPRTETGSGSP-NH2 (N-terminus assumed; SMILES CC(C)C[C@H](NC(=O)[C@H](C)NC(=O)[C@H](C)NC(=O)[C@@H](NC(=O)[C@H](CO)NC(=O)[C@H](CC(C)C)NC(=O)[C@H](CCC(=O)O)NC(=O)[C@H](CO)NC(=O)[C@H](C)N)[C@@H](C)O)C(=O)NCC(=O)N[C@@H](CCCNC(=N)N)C(=O)N[C@@H](CC(C)C)C(=O)N[C@@H](CO)C(=O)N[C@@H](C)C(=O)N[C@@H](CCC(=O)O)C(=O)N[C@@H](CC(C)C)C(=O)N[C@@H](Cc1c[nH]cn1)C(=O)N[C@@H](CCCCNC(=O)CC[C@H](NC(=O)CCCCCCCCCCCCCCCCCCC(=O)O)C(=O)O)C(=O)N[C@@H](CC(C)C)C(=O)N[C@@H](C)C(=O)N[C@H](C(=O)N[C@@H](CC(C)C)C(=O)N1CCC[C@H]1C(=O)N[C@@H](CCCNC(=N)N)C(=O)N[C@H](C(=O)N[C@@H](CCC(=O)O)C(=O)N[C@H](C(=O)NCC(=O)N[C@@H](CO)C(=O)NCC(=O)N[C@@H](CO)C(=O)N1CCC[C@H]1C(N)=O)[C@@H](C)O)[C@@H](C)O)[C@@H](C)O) [[des1, 19K(C20 diacid-gGlu), 30S, 31G]mimylin]"
4,4,"{C14 diacid-γGlu}-ASELSTAALGRLSAELHELATLPRTETGSGSP-NH2 [[N-terminal(C14 diacid-gGlu), des1, 30S, 31G]mimylin]"
27,66,"{C20 diacid-γGlu-AEEA-AEEA-AEEA-AEEA-AEEA}-ASELSTAALGRLSAELHELATLPRTETGSGSP-NH2 [[N-terminal(C20 diacid-gGlu-5xOEG), des1, 30S, 31G]mimylin]"
11,26,"{C18 diacid-γGlu}-ASELSTAALGRLSAELHELATLPRTETGSGSP-NH2 [[N-terminal(C18 diacid-gGlu), des1, 30S, 31G]mimylin]"
25,62,"{C20 diacid-γGlu-AEEA-AEEA-AEEA-AEEA}-ASELSTAALGRLSAELHELATLPRTETGSGSP-NH2 [[N-terminal(C20 diacid-gGlu-4xOEG), des1, 30S, 31G]mimylin]"
3,4,"{C16 diacid}-ASELSTAALGRLSAELHELATLPRTETGSGSP-NH2 [[N-terminal(C16 diacid), des1, 30S, 31G]mimylin]"
24,67,"{C20 diacid-γGlu}-ASELSTAALGRLSAELHELATYPRTETGSGSP-NH2 (SMILES CC(C)C[C@H](NC(=O)[C@H](C)NC(=O)[C@H](C)NC(=O)[C@@H](NC(=O)[C@H](CO)NC(=O)[C@H](CC(C)C)NC(=O)[C@H](CCC(=O)O)NC(=O)[C@H](CO)NC(=O)[C@H](C)NC(=O)CC[C@H](NC(=O)CCCCCCCCCCCCCCCCCCC(=O)O)C(=O)O)[C@@H](C)O)C(=O)NCC(=O)N[C@@H](CCCNC(=N)N)C(=O)N[C@@H](CC(C)C)C(=O)N[C@@H](CO)C(=O)N[C@@H](C)C(=O)N[C@@H](CCC(=O)O)C(=O)N[C@@H](CC(C)C)C(=O)N[C@@H](Cc1c[nH]cn1)C(=O)N[C@@H](CCC(=O)O)C(=O)N[C@@H](CC(C)C)C(=O)N[C@@H](C)C(=O)N[C@H](C(=O)N[C@@H](Cc1ccc(O)cc1)C(=O)N1CCC[C@H]1C(=O)N[C@@H](CCCNC(=N)N)C(=O)N[C@H](C(=O)N[C@@H](CCC(=O)O)C(=O)N[C@H](C(=O)NCC(=O)N[C@@H](CO)C(=O)NCC(=O)N[C@@H](CO)C(=O)N1CCC[C@H]1C(N)=O)[C@@H](C)O)[C@@H](C)O)[C@@H](C)O) [[N-terminal(C20 diacid-gGlu), des1, 23Y, 30S, 31G]mimylin]"
29,51,"{C20 diacid-γGlu}-ASELSTAALGRLSAELHELATLPRTETGSGSP-NH2 [[N-terminal(C20 diacid-gGlu), des1, 30S, 31G]mimylin]"
8,9,"{C18 diacid}-ASELSTAALGRLSAELHELATLPRTETGSGSP-NH2 [[N-terminal(C18 diacid), des1, 30S, 31G]mimylin]"
4,6,"{C14 diacid}-ASELSTAALGRLSAELHELATLPRTETGSGSP-NH2 [[N-terminal(C14 diacid), des1, 30S, 31G]mimylin]"
30,73,"{C20 diacid-γGlu-AEEA}-ASELSTAALGRLSAELHELATLPRTETGSGSP-NH2 [[N-terminal(C20 diacid-gGlu-OEG), des1, 30S, 31G]mimylin]"
25,68,"{C20 diacid-γGlu-AEEA-AEEA-AEEA}-ASELSTAALGRLSAELHELATLPRTETGSGSP-NH2 [[N-terminal(C20 diacid-gGlu-3xOEG), des1, 30S, 31G]mimylin]"
